{"source": "paper PMC3896448", "about": "(2014)", "binders": {"B1": {"name": "OBody AM3L15 (designed binder)", "chain": "VSPKKTHWTAEITPNLHGSEVVVAGWVAHLGDYGRVKIVKVSDREGGAAVPVYLERGKTPDHLFKVFAELSREDVVVIKGIVEAGWPVALDTGVEIFPSEIWILNKAKPLPID"}, "B2": {"name": "OBody AM1L200 (designed binder)", "chain": "B1 chain with S2Y, S19T, K37M, G85S, W86K, P87Q, V88Y, A89G, L90S"}, "B3": {"name": "OBody AM3L09 (designed binder)", "chain": "B1 chain with G85T, W86T, P87V, V88T, A89R, L90W"}, "B4": {"name": "OBody AM1L10 (designed binder)", "chain": "AMGSVYPKKTHWTAEITPNLHGTEVVVAGWVASLGDYGRVKIVKVSDREGGAAVSVYLEYGKTPDHLFKVFAELSREDVVVIKGIVEASKAAADMHNGVEIFPSEIWILNKAK"}}, "key": {"hen egg-white lysozyme [1]": {"biological_target": "T1, hen egg-white lysozyme (hen (egg-white), UniProt P00698 19-147)", "T1 sequence (P00698 19-147)": "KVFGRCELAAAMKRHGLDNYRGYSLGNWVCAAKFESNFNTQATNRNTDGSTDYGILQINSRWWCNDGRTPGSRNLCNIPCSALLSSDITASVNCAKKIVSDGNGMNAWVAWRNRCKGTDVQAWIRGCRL", "assay": "SPR"}, "hen egg-white lysozyme [2]": {"biological_target": "T1, hen egg-white lysozyme"}}, "note": "Where a chain is given by its changes, count along the chain named.", "data": [{"binder": "B1", "values": [{"measurement": "koff", "setting": "hen egg-white lysozyme [1]", "value": 0.0256, "unit": "s⁻¹"}]}, {"binder": "B2", "values": [{"measurement": "Kd", "setting": "hen egg-white lysozyme [2]", "value": 1.2, "unit": "µM"}]}, {"binder": "B3", "values": [{"measurement": "koff", "setting": "hen egg-white lysozyme [1]", "value": 0.00249, "unit": "s⁻¹"}]}, {"binder": "B4", "values": [{"measurement": "Kd", "setting": "hen egg-white lysozyme [2]", "value": 4.6, "unit": "µM"}]}]}
